Experimental data from patent publication US20240400698A1, “ANTI-CHEMOKIN LIKE RECEPTOR 1 ANTIBODIES AND THEIR THERAPEUTIC APPLICATIONS” (OSE IMMUNOTHERAPEUTICS, priority 2018, published 2024).

System: human macrophages M1 or M2
Test: Human monocyte differentiation and polarization, CD200R by FACS and cytokine secretion by ELISA, FIG. 16
Assay type: cell-based
Conditions: human cells, 2 μg/ml
Method: FIG. 16. Study of the inflammatory cytokine secretion by human macrophages during CMKLR1 activation. After differentiation of human monocytes, cells were incubated in presence of different isotype controls (mIgG4; hIgG4 or hIgG1 at […]); C7 commercial anti-CMKLR1 antibody (2 μg/ml); 2G4 or 2G1 antibodies (2 μg/ml), or other commercial anti-CMKLR1 antibodies (H6 (2 μg/ml), BZ332 (2 μg/ml) or 84939 (2 μg/ml), C15 peptides (10 nM), or RvE1 (10 ng/ml). A. Expression of the CD200R marker measured by FACS. B. IL10 cytokine secretion by M2 cells. C. CCL17 cytokine secretion by M2 cells. D. represents IL12 cytokine secretion by M1 cells. Secretion of IL10, CCL17 and IL12p40 were assessed by ELISA.
Monocytes were collected from PBMC of buffy coat of healthy volunteers and isolated by magnetic separation or by elutriation. Then, monocytes were cultured with different cocktails of cytokines to generate differentiated unpolarized macrophages or polarized macrophages. This protocol allowed to generate polarized differentiated macrophages in order to have pro-(M1) or anti-(M2) inflammatory macrophages in different wells. Monocytes were plated at 0.5·10^6 cells/mL in complete RPMI (RPMI with 10% FBS, 1% glutamine, 1% antibiotics) and 500 μL of the cell suspension was plated per well in a 24-well plate. 100 ng/ml of M-CSF was added with medium for differentiation of the cells. Cells were incubated 5 days and medium was replaced with fresh medium complemented with 100 ng/ml of M-CSF at day 3. For the polarization phases, solution of LPS-IFNg at 100 ng/ml of LPS and 20 ng/ml of IFNg complemented with isotype controls (mIgG1 or hIgG4) (2 μg/ml) or anti-CMKLR1 antibodies (2 μg/ml) (2G1 or 2G4, H6, BZ332 or 84939) or with C15 peptide (10 nM) or RvE1 (10 ng/ml) during 3 days to generate M1 macrophages. M1-IFNg macrophages could also be generated by adding only IFNg (20 ng/ml) in culture medium. […]
Cytokines secretion was detected by ELISA according to the BD manufacturer instructions. […] TMB supplied by BD Bioscience was used as substrate and colorimetric reaction was read with TECAN.

B1: 2G1: chimeric anti-CMKLR1 antibody, murine variable regions (SEQ ID No: 10 and 17), human IgG1 constant regions; VH-CDR3 variant LI (antibody, V domains shown)
VH: METDTLLLWVLLLWVPGSTGDEVQLVASGGGLVQPGGSLKLSCAASGFTFSSYGMSWVRQTPDRRLELVATINRYGGSTYYPDSVKGRFTISRDNAKNTLYLQMSSLKSEDTAMYYCPRLIYYGNEGDSWGQGTTLTVSS
VL: METDTLLLWVLLLWVPGSTGDQIVLTQSPAIMSASPGEKVTMTCSASSSVSFMHWYQQKSGTSPKRWIYDTTKLTSGVPARFSGSGSGTFYSLTISSMEAEDAATYYCQQWNSKPPLTFGPGTKLELKR
modifications: human IgG1 constant regions
notes: VH-CDR3 variant LI
CCL17 secretion by M2 type macrophages: able to induce
IL10 secretion by M2 type macrophages: able to induce
secretion of the IL12p40 cytokine by M1 type macrophages: able to decrease the secretion
